# Experimental data as given in the supplement of paper PMC9732359.
# ± gives the uncertainty stated by the source.
# Experiment: protein stability index of a GFP-peptide fusion (yeast GPS) (PSI 1-4); higher = more stable; sorted into four equal gates, so the index is relative within each strain
# Summary of the method: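 Tiled yeast protein peptides of 17 residues were each joined downstream of GFP, on plasmids that also express Cherry. The pooled library was maintained in yeast, and mid-log cultures in leucine-free medium were sorted into four equal gates on the GFP/Cherry ratio. Plasmids from every gate were amplified by PCR and sequenced on Illumina, with barcodes linking reads to strains. The protein stability index of a peptide is its gate-number-weighted read frequency summed over the gates.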
Sequence,protein stability index (doa10∆),protein stability index (pdr5∆),protein stability index (san1∆),protein stability index (ubr1∆)
NLTYYNEKLECISLGST [ITC1],2.2 ± 0.061,2.39 ± 0.044,2.32 ± 0.044,2.45 ± 0.04
NLVSLLIIVTRKNYMHV [YML031W/NDC1],1.21 ± 0.041,1.22 ± 0.039,1.26 ± 0.11,1.3 ± 0.033
NNDLESVSMLLQYYILE [RRI2],2.94 ± 0.047,3.16 ± 0.049,3.16 ± 0.034,3.122 ± 0.031
NNESSDDMDIDEVNDRS [PCI8],3.09 ± 0.086,3.17 ± 0.072,3.05 ± 0.061,3.09 ± 0.081
NNGNNSTSIQYHGISKN [POP6],2.48 ± 0.063,2.51 ± 0.06,2.65 ± 0.044,2.22 ± 0.07
NNIIAEGIEKMGVRTFS [FAS2],2.7 ± 0.22,–,2.23 ± 0.12,2.69 ± 0.12
NNKILEKCKEINVETVY [BRR2],1.73 ± 0.06,2 ± 0.062,1.78 ± 0.19,2.06 ± 0.067
NNKNNSITTGNDNENIV [MED2],2.89 ± 0.046,2.94 ± 0.047,2.95 ± 0.044,2.99 ± 0.046
NNNNKSINKNNKEMHTD [SSN2],3.01 ± 0.087,2.99 ± 0.082,2.75 ± 0.073,3.17 ± 0.093
NNNNNNNDDNGNNNNNN [MED2],3.277 ± 0.029,3.284 ± 0.023,3.327 ± 0.017,3.286 ± 0.023
NNNNSNNHNMRNNSNNK [SWI1],3.054 ± 0.029,2.95 ± 0.031,2.762 ± 0.026,2.764 ± 0.021
NNPLLLIVDVKQQGVGL [RPN8],1.27 ± 0.14,1.87 ± 0.1,1.87 ± 0.15,2.15 ± 0.1
NNRQLPYLVANVVEVMD [RPT5],2.4 ± 0.11,2.78 ± 0.07,2.58 ± 0.14,2.71 ± 0.074
NNSEQDQEIVIQQLHSV [ISW2],2.48 ± 0.06,2.59 ± 0.071,2.2 ± 0.096,2.53 ± 0.038
NNSLSYHSGRLLIQGPK [ITC1],2.45 ± 0.054,2.3 ± 0.048,2.47 ± 0.062,2.93 ± 0.051
NNSNSNNNDNNNSNTVA [SWI1],2.95 ± 0.058,3.14 ± 0.051,3.04 ± 0.042,3.13 ± 0.045
NNTTPSSTGNANTSNNL [YJL041W/NSP1],3.34 ± 0.093,3.29 ± 0.08,3.46 ± 0.095,3.37 ± 0.07
NNYKDLLAVAIAASYHY [RPP0],1.4 ± 0.065,1.95 ± 0.12,1.39 ± 0.15,1.64 ± 0.068
NPDDLMKAVRKVAEVKK [RPT4],–,3.4 ± 0.25,–,–
NPNSTAITADLGSSEAE [YGL172W/NUP49],2.56 ± 0.24,2.4 ± 0.14,2.86 ± 0.22,2.76 ± 0.12

Sequence,protein stability index (doa10∆),protein stability index (pdr5∆),protein stability index (san1∆),protein stability index (ubr1∆)
NPRKRAIPNSIIKRSNG [YMR153W/NUP53],2.19 ± 0.091,2.7 ± 0.1,2.67 ± 0.1,2.92 ± 0.12
NPTKSKEILDNILPFLW [ECM29],2.26 ± 0.085,2.97 ± 0.1,2.8 ± 0.23,2.61 ± 0.085
NPYSSYVSQIRKHKRVS [YAR002W/NUP60],2.23 ± 0.081,1.88 ± 0.05,2.85 ± 0.049,2.38 ± 0.067
NQGVNELKYQRSLRATA [RPL15A],1.33 ± 0.073,1.42 ± 0.086,1.61 ± 0.18,1.11 ± 0.05
NQINSFWSLHSSTYYNL [NUT1],2.34 ± 0.064,1.75 ± 0.049,1.72 ± 0.073,1.57 ± 0.036
NQKTSAVAALTEVRAED [RPL8A],2.92 ± 0.082,2.94 ± 0.071,3.18 ± 0.058,2.68 ± 0.087
NQLVEPNRIKLSKEVPF [SRB5],2.42 ± 0.038,2.44 ± 0.037,2.46 ± 0.042,2.23 ± 0.025
NQMGMGTNNGMSMGGGV [YOR098C/NUP1],3.39 ± 0.13,3.15 ± 0.17,3.33 ± 0.099,3.24 ± 0.11
NQNTLKEISARRYKLLT [POP1],2.13 ± 0.049,2.35 ± 0.045,2.1 ± 0.067,2.65 ± 0.045
NQQQQQQQQQQQQRRQL [GAL11],2.79 ± 0.056,2.9 ± 0.063,2.84 ± 0.043,2.91 ± 0.051
NQSSFNFGNNGAGGLNP [YOR098C/NUP1],3.15 ± 0.069,3.1 ± 0.076,3.2 ± 0.045,3.25 ± 0.064
NQTIKEAKDAIIELENI [YIL149C/MLP2],3.02 ± 0.061,3.2 ± 0.07,3.06 ± 0.052,2.89 ± 0.065
NRTLYELADLPKLKRIG [GRR1],2.88 ± 0.049,2.87 ± 0.037,2.8 ± 0.042,3.02 ± 0.042
NRVGLTLDNIDDINKAK [ARP9],3.15 ± 0.056,2.93 ± 0.051,3.22 ± 0.045,2.43 ± 0.034
NSADVDMDAQGRSDSNT [YGL100W/SEH1],3.45 ± 0.096,3.39 ± 0.088,3.1 ± 0.12,3.29 ± 0.061
NSEISNLPKDKSGIPEF [SSN2],2.98 ± 0.087,3 ± 0.11,2.9 ± 0.072,3.33 ± 0.076
NSEYLKRRVTNLEFNYT [SMC2],2.38 ± 0.066,2.27 ± 0.1,2.5 ± 0.091,2.49 ± 0.084
NSIDSTSRIELELKNIG [ECM29],3.24 ± 0.087,3.15 ± 0.062,2.8 ± 0.05,2.72 ± 0.044
NSIESKNLSLQTGTKPV [COR1],2.72 ± 0.06,2.84 ± 0.053,2.95 ± 0.045,2.85 ± 0.042
NSIWGSSLRKNASGNKR [ITC1],1.6 ± 0.062,2.12 ± 0.097,2.5 ± 0.11,1.86 ± 0.044
